# Source: patent publication US20090136503A1 (BEIJING COTIMES BIOTECH, published 2009)
# Like-named read-outs stand apart in the source and are kept apart here.
# T1: TRAIL-R3-Fc fusion protein (human, UniProt O14798 26-221, limits assumed)
# T1 construct: The origin of the protein is not described; also called TRAIL-R3-Fc fusion antigen; not shown: human IgG1 Fc
# T1 sequence (looked up): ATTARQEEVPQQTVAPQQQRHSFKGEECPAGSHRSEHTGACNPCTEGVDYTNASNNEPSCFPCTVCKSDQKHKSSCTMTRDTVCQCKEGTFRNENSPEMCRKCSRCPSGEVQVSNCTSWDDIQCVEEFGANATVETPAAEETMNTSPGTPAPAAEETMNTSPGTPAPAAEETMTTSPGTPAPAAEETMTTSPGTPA
# T2: TRAIL-R4-Fc fusion protein (human, UniProt Q9UBN6 56-211)
# T2 construct: The origin of the protein is not described; also called TRAIL-R4-Fc fusion antigen; not shown: human IgG1 Fc
# T2 sequence (looked up): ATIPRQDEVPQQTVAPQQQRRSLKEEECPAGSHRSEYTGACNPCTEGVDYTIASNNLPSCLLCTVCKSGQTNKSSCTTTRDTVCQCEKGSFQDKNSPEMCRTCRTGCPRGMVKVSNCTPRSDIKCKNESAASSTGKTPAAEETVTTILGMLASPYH
# B1: CTB003 murine monoclonal antibody (hybridoma CGMCC 1665) (antibody, mouse IgG1, V domains shown)
# VH: EVHLVESGGGLVRPGGSLKLSCAASGFAFSSYDMSWVRQTPEKRLEWVAYISDGGGITYYPDTMKGRLTISRDNAKNTLSLQMSSLKSEDTAMYYCARHITMVVGPFAYWGQGTLVTVSA
# VL: DIQMTQSSSSFSVSLGDRVTITCKAGEDIYNRLAWYQQKPGNAPRLLISGATNLETGVPSRFSGSGSGKDYTLSITSLQTEDVATYYCQQYWSTPLTFGAGTKLELK
# notes: also called murine CTB003; parental murine CTB003
# B2: Human chimeric CTB003 (mouse-human chimeric antibody) (antibody, human IgG1, V domains shown)
# VH: EVHLVESGGGLVRPGGSLKLSCAASGFAFSSYDMSWVRQTPEKRLEWVAYISDGGGITYYPDTMKGRFTISRDNAKNTLSLQMSSLKSEDTAMYYCARHITMVVGPFAYWGQGTLVTVSA
# VL: DIQMTQSSSSFSVSLGDRVTITCKASEDIYNRLAWYQQKPGNAPRLLISGATSLETGVPSRFSGSGSGKDYTLSITSLQTEDVATYYCQQYWSTPLTFGAGTKLELKR
# notes: Human IgG1 / kappa constant regions, made in CHO cells; also called hCTB003; HuCTB003
# B3: CTB006 murine monoclonal antibody against TRAIL-R2 (hybridoma CGMCC 1691) (antibody, V domains shown)
# VH: QVQLQQPGPELVKPGASVRMSCKASGYTFTSYFIHWVKQRPGQGLEWIGWIYPGNVNTKYSEKFKGKATLTADKSSSTAYMQFSSLTSEDSAVYFCARGEAGYFDYWGQGTTLTVSS
# VL: DIVMTQSHKFMSTSVGDRVSITCKASQDVSTAVAWYQQKPGQSPRLLIYWASTRHTGVPDRFTGSGSGTDYTLTISSVQAEDQALYYCQQHYRTPWTFGGGTKLEIK
# notes: Murine monoclonal antibody; also called Anti-TRAIL-R2 (CTB006); CTB006-HRP
# B4: Human chimeric CTB006 (mouse-human chimeric antibody) (antibody, V domains shown)
# VH: EVQLQQSGPELVKPGASVRMSCKASGYTFTSYFIHWVKQRPGQGLEWIGWIYPGNVNTKYSEKFKGKATLTADKSSSTAYMQFSSLTSEDSAVYFCARGEAGYFDYWGQGTTLTVSS
# VL: DIVMTQSHKFMSTSVGDRVSITCKASQDVSTAVAWYQQKPGQSPRLLIYWASTRHTGVPDRFTGSGSGTDYTLTISSVQAEDQALYYCQQHYRTPWTFGGGTKLEIKR
# notes: Human IgG1 / kappa constant regions, made in CHO cells; also called hCTB006; HuCTB006
# B5: Human chimeric CTB007 (mouse-human chimeric antibody) (antibody, V domains shown)
# VH: EVQLQQSGAELVKPGASVKLSCTASGFNIKDTYMHWVKQRPEQGLEWIGRIDPANGNTKYDPKFQGKATITADTSSNTAYLQLSSLTSEDTAVYYCAYYYVSNAWFTYWGQGTLVTVSA
# VL: DIQMTQSPASLSVSVGETVTITCRASENIYSNLEWYQQKQGKSPQLLVYAATNLADGVPSRFSGSGSGTQYSLKINSLQSEDFGSYYCQHFWGTWTFGGGTKLEIKR
# notes: Human IgG1 / kappa constant regions, made in CHO cells; also called hCTB007; HuCTB007
# How the values were obtained:
# [1] = target: T1, TRAIL-R3-Fc fusion protein; assay: ELISA: plate coated with TRAIL-R3-Fc at 1 µg/ml, CTB003 titrated, HRP anti-mouse IgG, TMB, OD 450/650
# [2] = target: T2, TRAIL-R4-Fc fusion protein; assay: ELISA: plate coated with TRAIL-R4-Fc at 1 µg/ml, HRP goat anti-mouse IgG1, TMB
# [3] = target: T3, TRAIL-R1-Fc fusion protein (human, UniProt O00220 24-239); assay: ELISA: plate coated with TRAIL-R1-Fc at 1 µg/ml, CTB003 titrated, HRP anti-mouse IgG, TMB, OD 450/650
# T3 construct: extracellular domain; also called TRAIL-R1-Fc fusion antigen; not shown: Fc portion of human IgG1
# [4] = target: T4, BSA (bovine serum albumin), negative control (bovine, UniProt P02769 25-607); assay: ELISA: plate coated with BSA (control) at 1 µg/ml, HRP goat anti-mouse IgG1, TMB
# [5] = target: TRAIL-R1 and/or TRAIL-R2 on human cancer cells; assay: cell-based or functional assay
# [6] = target: T5, TRAIL-R2 on the surface of human tumor cells (human, UniProt O14763 56-440); assay: cell-based or functional assay
# [7] = target: T6, Heterodimeric TRAIL-R1-Fc/TRAIL-R2-Fc fusion protein (human, UniProt O00220 24-239; O14763 56-210); assay: ELISA: plate coated with TRAIL-R1/TRAIL-R2-Fc heterodimer at 1 µg/ml, CTB003 titrated, HRP anti-mouse IgG, TMB, OD 450/650
# T6 construct: extracellular domain; also called TRAIL-R1/TRAIL-R2 dimer; TRAIL-R1/TRAIL-R2 heterodimer antigen; not shown: Fc portion of human IgG1
# [8] = target: T1, TRAIL-R3-Fc fusion protein; assay: ELISA: plate coated with TRAIL-R3-Fc at 1 µg/ml, HRP goat anti-human kappa, TMB
# [9] = target: T4, BSA (bovine serum albumin), negative …; assay: ELISA: plate coated with BSA (control) at 1 µg/ml, HRP goat anti-human kappa, TMB
# [10] = target: T6, Heterodimeric TRAIL-R1-Fc/TRAIL-R2-Fc …; assay: ELISA: plate coated with TRAIL-R1/TRAIL-R2-Fc heterodimer at 1 µg/ml, HRP goat anti-human kappa, TMB
# [11] = target: T3, TRAIL-R1-Fc fusion protein; assay: ELISA: plate coated with TRAIL-R1-Fc at 1 µg/ml, HRP goat anti-human kappa, TMB
# [12] = target: T2, TRAIL-R4-Fc fusion protein; assay: ELISA: plate coated with TRAIL-R4-Fc at 1 µg/ml, HRP goat anti-human kappa, TMB
# [13] = target: T1, TRAIL-R3-Fc fusion protein; assay: ELISA: plate coated with TRAIL-R3-Fc at 1 µg/ml, HRP goat anti-mouse IgG, TMB
# [14] = target: T2, TRAIL-R4-Fc fusion protein; assay: ELISA: plate coated with TRAIL-R4-Fc at 1 µg/ml, HRP goat anti-mouse IgG, TMB
# [15] = target: Human IgG1 (control antigen) (human); assay: ELISA; human IgG1 captured on goat anti-human IgG, antibody at 2 µg/ml
# [16] = target: T5, TRAIL-R2 on the surface of human tumor …; assay: cell-based or functional assay; remark: listed apart in the source
# [17] = target: T2, TRAIL-R4-Fc fusion protein; assay: ELISA: plate coated with TRAIL-R4-Fc at 1 µg/ml, HRP goat anti-human kappa, TMB; remark: listed apart in the source
# [18] = target: T4, BSA (bovine serum albumin), negative …; assay: ELISA: plate coated with BSA (control) at 1 µg/ml, HRP goat anti-human kappa, TMB; remark: listed apart in the source
# [19] = target: T1, TRAIL-R3-Fc fusion protein; assay: ELISA: plate coated with TRAIL-R3-Fc at 1 µg/ml, HRP goat anti-human kappa, TMB; remark: listed apart in the source
# [20] = target: T6, Heterodimeric TRAIL-R1-Fc/TRAIL-R2-Fc …; assay: ELISA: plate coated with TRAIL-R1/TRAIL-R2-Fc heterodimer at 1 µg/ml, HRP goat anti-human kappa, TMB; remark: listed apart in the source
# [21] = target: T3, TRAIL-R1-Fc fusion protein; assay: ELISA: plate coated with TRAIL-R1-Fc at 1 µg/ml, HRP goat anti-human kappa, TMB; remark: listed apart in the source
# [22] = target: T4, BSA (bovine serum albumin), negative …; assay: ELISA: plate coated with BSA (control) at 1 µg/ml, HRP goat anti-human kappa, TMB; remark: listed apart in the source
# [23] = target: T1, TRAIL-R3-Fc fusion protein; assay: ELISA: plate coated with TRAIL-R3-Fc at 1 µg/ml, HRP goat anti-human kappa, TMB; remark: listed apart in the source
# [24] = target: T2, TRAIL-R4-Fc fusion protein; assay: ELISA: plate coated with TRAIL-R4-Fc at 1 µg/ml, HRP goat anti-human kappa, TMB; remark: listed apart in the source
# [25] = target: TRAIL-R1 on the surface of human tumor cells (human, UniProt O00220 24-468); assay: cell-based or functional assay
# T4 sequence (P02769 25-607 limits assumed): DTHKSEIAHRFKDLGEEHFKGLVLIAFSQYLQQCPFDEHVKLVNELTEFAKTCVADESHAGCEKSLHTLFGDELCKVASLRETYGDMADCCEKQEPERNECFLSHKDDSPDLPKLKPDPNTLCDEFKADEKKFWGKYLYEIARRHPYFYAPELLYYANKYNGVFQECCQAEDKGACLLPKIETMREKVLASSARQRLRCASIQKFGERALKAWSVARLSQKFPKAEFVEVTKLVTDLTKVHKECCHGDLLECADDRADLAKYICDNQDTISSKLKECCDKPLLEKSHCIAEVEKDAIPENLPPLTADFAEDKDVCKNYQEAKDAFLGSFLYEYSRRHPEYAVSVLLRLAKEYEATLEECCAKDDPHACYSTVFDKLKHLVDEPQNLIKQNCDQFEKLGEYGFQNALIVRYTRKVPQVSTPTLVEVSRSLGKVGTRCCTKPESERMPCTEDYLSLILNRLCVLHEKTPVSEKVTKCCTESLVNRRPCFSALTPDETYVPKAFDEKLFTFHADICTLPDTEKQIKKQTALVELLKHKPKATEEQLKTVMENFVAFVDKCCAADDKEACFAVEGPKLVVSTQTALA
binder,measurement,setting,value
B1,binding result,[1],no binding (tested: 10^4 ng/ml)
same,binding result,[2],no binding (tested: 1000 ng/ml)
same,EC50 (read off the curve),[3],~0.02 µg/mL
same,binding result,[4],no binding (tested: 1000 ng/ml)
same,"IC50 (ng/ml), killing of Carov 3 cells, ATPLite cell viability",[5],24.6 ng/mL
same,"IC50 (ng/ml), killing of Colo205 cells, ATPLite cell viability",[5],7.1 ng/mL
same,"IC50 (ng/ml), killing of Du145 cells, ATPLite cell viability",[5],25.3 ng/mL
same,"IC50 (ng/ml), killing of H-2122 cells, ATPLite cell viability",[5],28.5 ng/mL
same,"IC50 (ng/ml), killing of MDA231 cells, ATPLite cell viability",[5],3.8 ng/mL
same,"IC50 (ng/ml), killing of MIAcap cells, ATPLite cell viability",[5],13.2 ng/mL
same,"IC50 (read off the curve); cell viability (%) of Jurkat cells, ATPLite, 16 h",[6],~0.02 µg/mL
same,EC50 (read off the curve),[7],~0.02 µg/mL
B2,binding result,[8],no binding (tested: 1000 ng/ml)
same,binding result,[9],no binding (tested: 1000 ng/ml)
same,binding result,[10],binds
same,binding result,[11],binds
same,binding result,[12],no binding (tested: 1000 ng/ml)
B3,binding result,[13],no binding (tested: 1000 ng/ml)
same,binding result,[14],no binding (tested: 1000 ng/ml)
same,OD 450 nm/650 nm,[15],0.028 OD
same,"IC50 (read off the curve); cell viability (%) of Jurkat cells, ATPLite, 16 h",[6],~0.01 µg/mL
same,"IC50 (ng/ml), killing of Carov 3 cells, ATPLite cell viability",[16],17.4 ng/mL
same,"IC50 (ng/ml), killing of Colo205 cells, ATPLite cell viability",[16],5.8 ng/mL
same,"IC50 (ng/ml), killing of Du145 cells, ATPLite cell viability",[16],55.6 ng/mL
same,"IC50 (ng/ml), killing of H-2122 cells, ATPLite cell viability",[16],44.1 ng/mL
same,"IC50 (ng/ml), killing of MDA231 cells, ATPLite cell viability",[16],2.2 ng/mL
same,"IC50 (ng/ml), killing of MIAcap cells, ATPLite cell viability",[16],9.5 ng/mL
B4,binding result,[17],no binding (tested: 1000 ng/ml)
same,binding result,[18],no binding (tested: 1000 ng/ml)
same,binding result,[19],no binding (tested: 1000 ng/ml)
same,binding result,[20],binds
same,binding result,[21],no binding (tested: 1000 ng/ml)
same,"IC50 (ng/ml), killing of Carov 3 cells, ATPLite cell viability",[16],18.5 ng/mL
same,"IC50 (ng/ml), killing of Colo205 cells, ATPLite cell viability",[16],6.2 ng/mL
same,"IC50 (ng/ml), killing of Du145 cells, ATPLite cell viability",[16],52.3 ng/mL
same,"IC50 (ng/ml), killing of H-2122 cells, ATPLite cell viability",[16],42.1 ng/mL
same,"IC50 (ng/ml), killing of MDA231 cells, ATPLite cell viability",[16],1.5 ng/mL
same,"IC50 (ng/ml), killing of MIAcap cells, ATPLite cell viability",[16],10.1 ng/mL
B5,binding result,[22],no binding (tested: 1000 ng/ml)
same,binding result,[23],no binding (tested: 1000 ng/ml)
same,binding result,[24],no binding (tested: 1000 ng/ml)
same,"IC50 (ng/ml), killing of Carov 3 cells, ATPLite cell viability",[25],31.6 ng/mL
same,"IC50 (ng/ml), killing of Colo205 cells, ATPLite cell viability",[25],5.9 ng/mL
same,"IC50 (ng/ml), killing of Du145 cells, ATPLite cell viability",[25],28.6 ng/mL
same,"IC50 (ng/ml), killing of H-2122 cells, ATPLite cell viability",[25],22.5 ng/mL
same,"IC50 (ng/ml), killing of MDA231 cells, ATPLite cell viability",[25],7.5 ng/mL
same,"IC50 (ng/ml), killing of MIAcap cells, ATPLite cell viability",[25],8.8 ng/mL
